According to a protein production outcome set (Wang et al. 2014):

Assay: label from the status in PepcDB records

Sequence	protein production
MAPLDSKSAGGEPGVWKSGRGRGRRLPKGRVYSDEALAAVRGVLGDRPRRRDLLIEFLHLIQDVYGHLSADHLAALAFEMKLGQAEVYETATFYAHFDVVKEGETPPPALTIRVCDSLSCALAGAEQLRAALEEGLDPGQVRVLRAPCMGRCDTAPVLELGHNHIDHATPEKVRAAIAAGDTHAHLPDYEGFDAYAAAGGYAVLKGLRAGGDWEAVQDSVLAAGLRGLGGAGFPSGRKWGFVRANPGPRYLAVNGDEGEPGTFKDRYYLERVPHLFLEGMLIAAWAVEAETCYIYMRDEYPAVLEILRREIAALEAAGIVAKGYIDLRRGAGAYICGEESAMIESIEGKRGLPRHRPPFVAQVGLFGRPTLVHNIETLHWVARVCREGPEVLNSIEKNGRKGLRSYSVSGRVARPGVHLLPAGSTIRDVIAAAGGMAAGHVFKAYQPGGPSSGLLPASMDDIPLDFDTLQPHGSFIGSAAVVVLSQQDSARDAALNMLRFFEDESCGQCTPCRAGCEKAVKLMQAEHWDQPLLEELCQVMADASICGLGQAAPNPIRLTMKHFAEEI	failed
MKYAITGATGHLGQQIVAAMRPLVATTELYLGVHTLSKAQVYQQQGLHIAAIDYQQPEQLRAFFQDSDVLIYIPSKSHDSYSRVQEFENVLAAVQQANVHHFLVMGFIADQVNNPFALSAFYGYVPRRLAGSDINYTIVRNALYADPLVPYLPELIERHNVVYPMADQALSFISQADSAAAFAKVATTPDLLQRGRIYTLTQSRAYTMPELATVLSQVSGQLIGYRPVSLQAFSNMYNQNGEGPMLASMYAGGARGLLATVSDDYQLIMDRPAQSLLDYLQTNYQKS	failed
MFRVTGTLSAASSPAVAAASFSAALRLSITPTLAIASPPHLRWFSKFSRQFLGGRISSLRPRIPSPCPIRLSGFPALKMRASFSSGSSGSSASREILVQHLLVKNNDVELFAELQKKFLDGEEMSDLAAEYSICPSKKDGGILGWVKLGQMVPEFEEAAFKAELNQVVRCRTQFGLHLLQVLSEREPVKDIQVEELHSKMQDPVFMDEAQLIDVREPNEIEIASLPGFKVFPLRQFGTWAPDITSKLNPEKDTFVLCKVGGRSMQVANWLQSQGFKSVYNITGGIQAYSLKVDPSIPTY	failed
VTRAIILAHGYATASSIANVANRLLKSQLFESFDMPLDVTPEAIANQVMAYIESHALASGLIILVDMGSLNAIHRHFNRRLSTPMAIINNVSTGMAMYVGERILQGVMLEDIVREIGDDLAVEHQLYYPQTDKP	failed
SNGQADRCDRTAYVSGLQPTISDIELFEVFNRVAHVEKVIVRNGAARHALIVFKTVQGLYQVLVNFQGTTLHGRQLHIRPLRESSHANSEAISTMFEKVKHQGNSGNSSYRQEHSFPEYRNQNPQASSYLPPNPRGHRNSTGCFNGGGGGYGRRRSAGGYNQYNQNKYPNETYPGMTLFDNHPVQQYSGFNPIDFRFDDYVEGAKRFDNLANLIRSSTPTDPFANYQKPCESTSTSRSRTNSAKDQKHGPPTWKMELQIKKDDHHHAGGGAATTGQKLSPQQFLAQIAQRQQSEQNADEVAKKKRPNLSVINPSLFYEQYPRTSSPVVYASKSKPSGHYDDKIASPHDPAVLAYSRLRVPQSAFDSLSPIDTDNCSFITKHLGPTTGVKRDLTNDELSDMIVSTGNLRINPTNIDHHDEPAPWSPLKRLRAESGSLSTAQVASPEFSPIKPKTMEFHETEDDVFETGPPPTYLSEGNENAEKKCVEQPKINYDDINNSRLPSNSHSAAPNSEKKHFVFPEYPMCRHSSVPSIAHLVGDLSDFCPHATADEKMLLDEASSIIENTTPAVSTAPAAAPGATMLQI	not failed
MTSVTDRSAHSAERSTEHTIDIHTTAGKLAELHKRREESLHPVGEDAVEKVHAKGKLTARERIYALLDEDSFVELDALAKHRSTNFNLGEKRPLGDGVVTGYGTIDGRDVCIFSQDATVFGGSLGEVYGEKIVKVQELAIKTGRPLIGINDGAGARIQEGVVSLGLYSRIFRNNILASGVIPQISLIMGAAAGGHVYSPALTDFVIMVDQTSQMFITGPDVIKTVTGEEVTMEELGGAHTHMAKSGTAHYAASGEQDAFDYVRELLSYLPPNNSTDAPRYQAAAPTGPIEENLTDEDLELDTLIPDSPNQPYDMHEVITRLLDDEFLEIQAGYAQNIVVGFGRIDGRPVGIVANQPTHFAGCLDINASEKAARFVRTCDCFNIPIVMLVDVPGFLPGTDQEYNGIIRRGAKLLYAYGEATVPKITVITRKAYGGAYCVMGSKDMGCDVNLAWPTAQIAVMGASGAVGFVYRQQLAEAAANGEDIDKLRLRLQQEYEDTLVNPYVAAERGYVDAVIPPSHTRGYIGTALRLLERKIAQLPPKKHGNVPL	not failed
MASISNLIILLISFLIGWIILSIPVWLASKAVSRRSSFGNAMIVSLVSIVVYVVLSTFLHFIGAIIGIIIILLIIREIYNVGWGGAIVIGVLSLVIFVIIALILGALHLASLLI	failed
MSLTVQDLHFKNKVNFIGGQYVPSNESDTIDILSPSTGKVIGEIPAGCKADAENALEVAQAAQKAWAKLTARTRQNMLRTFANKIRENKHILAPMLVAEQGKLLSVAEMEVDVTATFIDYGCDNALTIEGDILPSDNQDEKIYIHKVPRGVVVGITAWNFPLALAGRKIGPALITGNTMVLKPTQETPLATTELGRIAKEAGLPDGVLNVINGTGSVVGQTLCESPITKMITMTGSTVAGKQIYKTSAEYMTPVMLELGGKAPMVVMDDADLDKAAEDALWGRFANCGQVCTCVERLYVHASVYDEFMAKFLPLVKGLKVGDPMDADSQMGPKCNQREIDNIDHIVHEAIKQGATVATGGKTATVEGFEGGCWYEPTVLVDVKQDNIVVHEETFGPILPIVKVSSMEQAIEFCNDSIYGLSAYVHTQSFANINQAISDLEVGEVYINRGMGEQHQGFHNGWKQSGFGGEDGKFGLEQYLEKKTVYINEAEGHHHHHH	not failed
MAAPGGRGRSLSGLLPAQTSLEYALLDAVTQQEKDSLVYQYLQKVDGWEQDLSVPEFPEGLEWLNTEEPISVYKDLCGKIVVLDFFTYCCINCIHLLPDLHALEHTYSDKDGLLIIGVHSAKFPNEKVLDNIKSAVLRYNITHPMVNDADASLWQELEVSCWPTLVILGPRGNMLFSLIGEGHKDKLFLYTSIALKYYKDRGQIRDNKIGIKLYKDSLPPSPLLFPGKVTVDQVTDRLVIADTGHHRILVVWKNGQIQYSIGGPNPGRKDGIFSESTFNSPQGVAIMNNIIYVADTENHLIRKIDLEAEKVSTVAGIGIQGTDKEGGAKGEQQPISSPWDVVFGTSGSEVQRGDILWIAMAGTHQIWALLLDSGKLPKKNELTKGTCLRFAGSGNEENRNNAYPHKAGFAQPSGLSLASEDPWSCLFVADSESSTVRTVSLKDGAVKHLVGGERDPMNLFAFGDVDGVGINAKLQHPLGVTWDKKRNLLYVADSYNHKIKVVDPKTKNCTTLAGTGDTNNVTSSSFTESTFNEPGGLCIGENGELLYVADTNNHQIKVMDLETKMVSVLPIFRSENAVVDGPFLVEKQKTLPKLPKSAPSIRLSPVTACAGQTLQFKLRLDLPSGSKLTEGVSSCWFLTAEGNEWLLQGQIAAGDIENISSQPTISLQIPDDCLSLEAIVSVSVFLYYCSADSSACMMKAILFSQPLQITDTQQGCIAPVELRYVF	failed
MSNANQKITTFLMFEGKAEEAMNFYTSLFDQSEIVSISRYDENGPGKEGTVIHATFTLNGQEFMCIDSYVNHNFTFTPAMSLYVTCETEEEIDTVFHKLAQDGAILMPLGSYPFSKKFGWLNDKYGVSWQLTLAE	not failed
MGGIYRLSLKSTEATAERLSCDTRCNYEDRDLAYSPDGRWLAIARRFSNISEDIFIRDLASAHEKRLTQGLEDIRGLSWTPDSQALVFATEDSGSSNGFTLDINTAQIRSLDVEGMSYPSSVSAEGELVYHQYHRQFQMAYFSLGDKVPGSLFPLLYSGVSHRNPDYSPEAKRIVFVSSETGYNEIWTSDINGQKLEQLTQLKSRVAYPRWSPDGSRIAFIAPDDRNEGNRIFILDLTNKNITALASSYHNHGRPSWNWQGTAVLASTADGITEFYLDNRAPRVISSLSMAVGFAKSATELVFSRDGENGLWQINLTQPEHVEQLISTDAFRAGNNWVLTASGVYFKSSNGHEQLLNYWEASSQQVTSLLRVPRSSLSGFGSMTYIPEANRLVMTLDGFPQRDIILLKHKLLKLEHHHHHH	failed
